The record followed here is patent publication US20220290139A1, “METHODS AND COMPOSITIONS FOR GENE SPECIFIC DEMETHYLATION AND ACTIVATION” (NATIONAL UNIVERSITY OF SINGAPORE, priority 2019, published 2022).

“Also recorded” adds a separate entry of the source.

One data set deals with P16 promoter. Description: p16 methylation (MSP/COBRA) after transient transfection. Type of data set: cell-based, human. Particulars: SNU-398, transient co-transfection with dCas9, guide G2, 72 hours. From the text:
(§1) In this example, a modified CRISPR/dCAS9 system for gene activation and demethylation was developed and tested with P16. The DiR localized in CEBPA locus (ecCEBPA) is repurposed to other specific gene target(s) for demethylation and reactivation. The RNA stem-loops (R2 and R5), interacting with DNMT1(1), were fused to the tetra- and stem-loop 2 in a single guide RNA (sgRNA) scaffold to obtain a modified sgRNA (MsgRNA, sgDiR in FIG. 1, also referred to as MsgDiR6 in Example 3 below). The hepatocellular carcinoma (HCC) cell line SNU-398, in which P16 is silenced by promoter methylation, was transiently transfected with dCas9 plasmid and one MsgRNA (using guide G2: […] (SEQ ID NO: 29), MsgRNA with guide G2 is shown as G2sgDiR in FIG. 1, as targeting portion) targeting the template strand of P16 promoter.
(§2) SNU-398 cells were seeded at a density of […] in 6-well plates 24 hours before transfection employing jetPRIME transfection reagent (Polyplus Transfection) as described by the manufacturer. 2 μg mix of sgRNA/MsgDiR and dCas9 plasmid(s) (sgRNA/MsgDiR: dCas9 molar ratio 1:1) were transfected into each well of cells. The culture medium was changed 12 hours after transfection. Alternatively, the Neon™ Transfection System (Thermo Fisher) was used for cell electroporation according to the manufacturer's instructions. The same plasmid amount and ratios were used in the Neon as in the jetPRIME transfection. The parameters used for the highest SNU-398 transfection efficiency were 0.7 to 1.5 million cells in 100 μl reagent, voltage 1550 V, width 35 ms and 1 pulse. The culture medium was changed 24 hours after transfection.
The methylation profiles of the p16 gene locus or the whole genome were assessed by bisulfite-conversion based assays. For DNA bisulfite conversion, 1.6-1.8 μg of genomic DNA of each sample was converted by the EpiTect Bisulfite Kit (Qiagen) following the manufacturer's instructions.
For Methylation-Specific PCR (MSP), both methylation specific primers and unmethylation specific primers of p16 were used for the PCR of the same bisulfite converted sample (the transient transfection samples in the sgRNA and MsgDiR1-8 screening assay). […] 7 min, 4° C. hold. […] 7 min, 4° C. hold. […] 7 min, 4° C. hold.

A further data set deals with P16. Description: p16 mRNA qRT-PCR after transient transfection of sgRNA/MsgDiR with or without dCas9. Type of data set: cell-based, human. Conditions: SNU-398, 72 hours; for P16 mRNA expression (qRT-PCR): transient co-transfection with dCas9, guide G2.
Description: as §1
This study transiently transfected dCas9 plasmid together with one MsgRNA plasmid (G2sgDiR) to SNU398 cells, culturing three days without selection for the positively transfected cells. Guide G2 targets one site in the template strand (also known as antisense strand) of P16 promoter; and was initially chosen for two reasons: 1) the sequence is one of the three guides used in a P16 gene study (3), and 2) G2 targets the P16 promoter region, the methylation and demethylation of which has been considered as an important factor for gene regulation.
All measurements were performed in triplicate.
as §2
On the technique in general: In qPCR the cycle at which signal appears reflects the starting amount.

B1: MsgDiR7: R2-R2 modified sgRNA, SEQ ID NO: 54 (nucleic acid)
guide: NNNNNNNNNNNNNNNNNNNGUUUGAGAGCUACCCGGGACGCGGGUCCGGGACAGUAGCAAGUUCAAAUAAGGCUAGUCCGUUAUCAACUUCCCGGGACGCGGGUCCGGGACAGAAGUGGCACCGAGUCGGUGCUUUUUU
modifications: MsgDiR7 R2-R2 Sequence; (1)..(19) n is a, c, g, or u
Turning to B1, in the data set with P16 promoter, the “P16 DNA methylation / demethylation” value was “not effective”.

B2: MsgRNA: Example 1 modified sgRNA, guide G2, R2 in tetra-loop and R5 in stem loop 2, SEQ ID NO: 15; used with dCas9 (nucleic acid)
guide: GCACUCAAACACGCCUUUGCGUUUUAGAGCUACCCGGGACGCGGGUCCGGGACAGUAGCAAGUUAAAAUAAGGCUAGUCCGUUAUCAACUUCUGAGGCCUUGGCGAGGCUUCUAAGUGGCACCGAGUCGGUGCUUUUUU
modifications: MsgRNA
notes: used with dCas9
Regarding B2, the “P16 mRNA expression (qRT-PCR)” value with P16 was “two-fold increase”; in the data set on P16 (listed as CRISPR-R2R5 system), “moderate gene activation”. The entries for the “P16 DNA methylation / demethylation” value in the data set with P16 promoter and in the data set with P16 promoter (listed as CRISPR-R2R5 system) were “loss of DNA methylation” and “demethylation”, respectively.

B3: MsgDiR6: R2-R5 modified sgRNA scaffold (CRISPR-DiR), SEQ ID NO: 53; tested with guide G2 (nucleic acid)
guide: NNNNNNNNNNNNNNNNNNNGUUUGAGAGCUACCCGGGACGCGGGUCCGGGACAGUAGCAAGUUCAAAUAAGGCUAGUCCGUUAUCAACUUCUGAGGCCUUGGCGAGGCUUCUAAGUGGCACCGAGUCGGUGCUUUUUU
modifications: MsgDiR6 R2-R5 Sequence; (1)..(19) n is a, c, g, or u
notes: tested with guide G2
In the case of B3, the “P16 mRNA expression (qRT-PCR)” value in the data set on P16 is listed as “moderate activation of p16; also recorded: moderate gene activation”; in the data set with P16 (listed as sgDiR (G2)), “moderate activation”. Also, the “p16 activation in absence of dCas9” value in the data set on P16 (transient transfection without dCas9) was “no effects”. In the data set on P16 promoter, the “P16 DNA methylation / demethylation” value was “induces P16 demethylation”.
